± gives the standard deviation of the averaged measurements.
System: ATP
Assay: switch fluorescence ratio, 500 uM ATP over buffer (Cy3 cluster intensity, sum of 5 cycles each) (fold (ratio)); higher = stronger signal-on switching upon ATP binding; sequences stand for … in TCGTCGGCAGCGTCAGATGTGTATAAGAGACAGTTTTTTTTTTTTTTTTTTTTTTTTT…TC
Details: aptamer strand: ATP DNA aptamer (quencher-CACCTGGGGGAGTATTGCGGAGGAAGG + anchor), 100 nM annealed; ATP concentration: 500 uM
Summary of the method: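 Exposure to 500 uM ATP lasted 15 min at 22 °C before imaging, and a selection-buffer image was taken beforehand, for Cy3-labelled switching-strand clusters on a modified Illumina MiSeq flow-cell annealed to 100 nM quencher-labelled ATP aptamer. Five buffer/ATP cycles were run with NaOH stripping and re-annealing between them. The fluorescence ratio per cluster is summed target-cycle over summed buffer-cycle Cy3 intensity, averaged per switch-domain sequence. Clusters outside 100-1000 RFU were excluded.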

| Sequence | switch fluorescence ratio |
| --- | --- |
| GGCCTAGTTT | 0.9799 ± 0.0073 |
| GGCCTATCAC | 1.016 ± 0.0078 |
| GGCCTATTCC | 1.04 ± 0.011 |
| GGCCTCATGC | 1.02 ± 0.017 |
| GGCCTCGGGG | 1.01 ± 0.05 |
| GGCCTCTTGG | 1 ± 0.011 |
| GGCGAAAGAG | 1.02 ± 0.049 |
| GGCGACGGGG | 1 ± 0.02 |
| GGCGACTAAA | 1.07 ± 0.057 |
| GGCGATCATA | 0.984 ± 0.024 |
| GGCGATTTTT | 1.013 ± 0.0022 |
| GGCGCAATTG | 2.04 ± 0.23 |
| GGCGCGAGAG | 1.032 ± 0.0092 |
| GGCGCGCATT | 1.02 ± 0.018 |
| GGCGCGGGGA | 1.02 ± 0.045 |
| GGCGCTCACA | 1.04 ± 0.028 |
| GGCGCTTTGT | 0.979 ± 0.02 |
| GGCGGCGGGA | 0.998 ± 0.027 |
| GGCGGCGTCT | 0.998 ± 0.036 |
| GGCGGCTACG | 1.003 ± 0.0035 |
| GGCGGGGACG | 0.999 ± 0.022 |
| GGCGGGGGGC | 0.986 ± 0.026 |
| GGCGGGTATG | 1.0223 ± 0.00097 |
| GGCGGTACGG | 1.01 ± 0.0066 |
| GGCGGTGGCG | 0.994 ± 0.1 |

| Sequence | switch fluorescence ratio |
| --- | --- |
| GGCGGTGGGT | 0.999 ± 0.038 |
| GGCGGTTTGA | 0.969 ± 0.014 |
| GGCGTAATTG | 1 ± 0.032 |
| GGCGTAGGGG | 1.02 ± 0.038 |
| GGCGTCGTAT | 0.9961 ± 0.0015 |
| GGCGTGGGGG | 1.051 ± 0.01 |
| GGCGTGTCAG | 0.951 ± 0.039 |
| GGCGTTTGCT | 0.9827 ± 0.0086 |
| GGCTAAGAGT | 0.991 ± 0.02 |
| GGCTACGGAA | 2.32 ± 0.022 |
| GGCTACGGCG | 0.993 ± 0.016 |
| GGCTACTTTA | 1.07 ± 0.039 |
| GGCTAGAGCT | 0.982 ± 0.032 |
| GGCTATCAAA | 1.01 ± 0.018 |
| GGCTCATTGG | 0.969 ± 0.025 |
| GGCTCGGGAC | 1.01 ± 0.039 |
| GGCTCGTAGG | 1 ± 0.024 |
| GGCTGCACGG | 1.013 ± 0.01 |
| GGCTGCAGCT | 0.992 ± 0.016 |
| GGCTGCCAGT | 0.9909 ± 0.0016 |
| GGCTGGATCT | 0.975 ± 0.027 |
| GGCTGGCACA | 1.002 ± 0.0085 |
| GGCTGGCAGC | 1 ± 0.016 |
| GGCTGGCAGT | 0.988 ± 0.015 |
| GGCTGGCGGG | 0.99 ± 0.044 |

| Sequence | switch fluorescence ratio |
| --- | --- |
| GGCTGGGGGA | 1.01 ± 0.024 |
| GGCTGGGTTA | 1 ± 0.026 |
| GGCTGTACAC | 1.0831 ± 0.001 |
| GGCTGTGAAC | 1.02 ± 0.023 |
| GGCTGTTGGG | 0.978 ± 0.012 |
| GGCTTAAGGT | 1.02 ± 0.064 |
| GGCTTACTAT | 1.01 ± 0.02 |
| GGCTTAGAAT | 0.97374 ± 0.00014 |
| GGCTTAGGTG | 1.26 ± 0.06 |
| GGCTTATGTG | 1.02 ± 0.051 |
| GGCTTCCCTG | 1.19 ± 0.025 |
| GGCTTGAAGC | 0.986 ± 0.018 |
| GGCTTGAGGG | 0.942 ± 0.033 |
| GGCTTGCAAC | 1.03 ± 0.012 |
| GGCTTGTGTA | 0.965 ± 0.015 |
| GGCTTTCATT | 0.983 ± 0.013 |
| GGCTTTGAGT | 0.9873 ± 0.0066 |
| GGCTTTTAAC | 0.9827 ± 0.0013 |
| GGGAAAAAAT | 1 ± 0.035 |
| GGGAAAAATC | 2.06 ± 1.5 |
| GGGAAAACGC | 1.02 ± 0.015 |
| GGGAAAACTA | 1 ± 0.028 |
| GGGAAAATTT | 1.07 ± 0.059 |
| GGGAAACCAC | 1.04 ± 0.02 |
| GGGAAACGAG | 1.04 ± 0.019 |

| Sequence | switch fluorescence ratio |
| --- | --- |
| GGGAAAGATA | 0.988 ± 0.021 |
| GGGAAAGCGC | 1.03 ± 0.064 |
| GGGAAAGCTG | 0.956 ± 0.096 |
| GGGAAAGGTG | 1.54 ± 0.11 |
| GGGAAATTGA | 1.01 ± 0.031 |
| GGGAAATTTG | 0.991 ± 0.026 |
| GGGAACACGA | 1.01 ± 0.018 |
| GGGAAGAACC | 1.02 ± 0.013 |
| GGGAAGACCG | 0.9921 ± 0.004 |
| GGGAAGAGGT | 0.988 ± 0.027 |
| GGGAAGGAAG | 1.04 ± 0.04 |
| GGGAAGGAGG | 1.02 ± 0.013 |
| GGGAAGTCAG | 1.002 ± 0.0098 |
| GGGAATCATG | 0.971 ± 0.044 |
| GGGAATCATT | 0.948 ± 0.034 |
| GGGAATCCTT | 1.03 ± 0.0018 |
| GGGAATCGGC | 1 ± 0.032 |
| GGGAATCGGG | 1 ± 0.019 |
| GGGAATGGAA | 0.995 ± 0.014 |
| GGGAATGGTC | 1.01 ± 0.043 |
| GGGAATGTAA | 0.973 ± 0.036 |
| GGGAATTAAG | 0.989 ± 0.032 |
| GGGAATTAAT | 1.04 ± 0.023 |
| GGGAATTTTA | 1.01 ± 0.012 |
| GGGACAAACC | 1.02 ± 0.019 |
